Laboratory results taken from publication PMC6212772.

B1: CDCA7 promoter (dsDNA)
DNA 1: GGCCGTTACCACAGCTTGCAGGACCTGTGTCCCAACGCGG
DNA 2: CCGCGTTGGGACACAGGTCCTGCAAGCTGTGGTAACGGCC
B2: OSTC promoter (dsDNA)
DNA 1: GTTAGAAGTCCCGCAGGTCCTTGAAGGTACACAAATCACC
DNA 2: GGTGATTTGTGTACCTTCAAGGACCTGCGGGACTTCTAAC
B3: CDCA7 outside promoter motif (dsDNA)
DNA 1: GGGTGCTGGACGCAGGCGGGCGCGGGCCGACCCTCTCCAA
DNA 2: TTGGAGAGGGTCGGCCCGCGCCCGCCTGCGTCCAGCACCC
B4: GAPDH promoter (dsDNA)
DNA 1: GAGCCTGGCGGGAGGCGGGGTCCGAGTCACCGCCTGCCGC
DNA 2: GCGGCAGGCGGTGACTCGGACCCCGCCTCCCGCCAGGCTC
B5: CAMKMT promoter wt (dsDNA)
DNA 1: GGGAAGAAGTTGGCAGGTCCTGGCAGGGGACGAGCTGCGGC
DNA 2: GCCGCAGCTCGTCCCCTGCCAGGACCTGCCAACTTCTTCCC
B6: CAMKMT promoter mut2 (dsDNA)
DNA 1: GGGAAGAAGTTGGCAGATACTGGCAGTGGACGAGCTGCGGC
DNA 2: GCCGCAGCTCGTCCACTGCCAGTATCTGCCAACTTCTTCCC
B7: CAMKMT promoter mut1 (dsDNA)
DNA 1: GGGAAGAAGTTGGCAGGTACTGGCAGGGGACGAGCTGCGGC
DNA 2: GCCGCAGCTCGTCCCCTGCCAGTACCTGCCAACTTCTTCCC

Key:
[1] = target: T1, GST-ZBTB24 zinc finger domain (UniProt O43167 294-512); experiment: EMSA
T1 sequence (O43167 294-512): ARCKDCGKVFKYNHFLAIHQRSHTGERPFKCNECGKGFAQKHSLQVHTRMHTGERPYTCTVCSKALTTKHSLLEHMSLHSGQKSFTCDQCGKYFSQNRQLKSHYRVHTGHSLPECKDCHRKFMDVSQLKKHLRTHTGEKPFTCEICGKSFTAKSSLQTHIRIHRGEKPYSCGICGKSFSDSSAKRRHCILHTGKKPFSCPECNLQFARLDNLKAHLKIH

[2] = target: T1, GST-ZBTB24 zinc finger domain; experiment: EMSA; remark: listed apart in the source
[3] = target: T1, GST-ZBTB24 zinc finger domain; experiment: competition

Binder	binding result [1]	also measured
B1	binds	–
B2	binds	–
B3	no binding	–
B4	no binding	–
B5	–	binding result [2]: binds
B6	–	binding result [3]: no binding
B7	–	binding result [3]: no binding
